In the assay the target is prostate-specific membrane antigen (Homo sapiens (Human), UniProt Q04609). Kind of assay: cell-based or functional assay.

B1: P28BB (CAR)
chain: EVQLQQSGPELVKPGTSVRISCKTSGYTFTEYTIHWVKQSHGKSLEWIGNINPNNGGTTYNQKFEDKATLTVDKSSSTAYMELRSLTSEDSAVYYCAAGWNFDYWGQGTTVTVSSGGGGSGGGGSGGGGSDIVMTQSHKFMSTSVGDRVSIICKASQDVGTAVDWYQQKPGQSPKLLIYWASTRHTGVPDRFTGSGSGTDFTLTITNVQSEDLADYFCQQYNSYPLTFGAGTMLDLKRAAAIEVMYPPPYLDNEKSNGTIIHVKGKHLCPSPLFPGPSKPFWVLVVVGGVLACYSLLVTVAFIIFWVRSKRSRLLHSDYMNMTPRRPGPTRKHYQPYAPPRDFAAYRSRFSVVKRGRKKLLYIFKQPFMRPVQTTQEEDGCSCRFPEEEEGGCE
For B1, the “long-term T cell proliferation (absolute T cell counts over 31 days, no exogenous cytokine)” value amounted to 58 fold expansion.

The values are drawn from patent US20150342993A1, “COMPOSITIONS AND METHODS FOR IMMUNOTHERAPY” (MEMORIAL SLOAN-KETTERING CANCER CENTER, published 2015).
